Results: paper PMC10690619 (Frontiers in Microbiology, 2023)

Tests used:
[1] = target: T1, cDPGS (Mf-cDPGS), cyclic 2,3-diphosphoglycerate synthetase (Methanothermus fervidus, UniProt O93732); assay: HPLC-MS detection of product; assay type: biochemical; conditions: 50 mM ATP, 250 mM 2,3-DPG, 50 mM MgCl2, 300 mM KCl, 25 mM Tris-HCl pH 8.0, 65 C, 60 min
T1 construct: gene cpgS; full length, 460 residues, N-terminal His6 tag (pLATE51, E. coli BL21(DE3), codon-optimised gene), homodimer ~100 kDa; apo structure solved from selenomethionine protein

[2] = target: the molecule itself; assay: SEC; calibrated Superdex 200 HiLoad 16/60, 20 mM Tris-HCl pH 7.5, 300 mM KCl, 1.0 mL/min, after Ni2+ affinity
[3] = target: the molecule itself; assay: crystal structure; ligand-free (apo) selenomethionine protein, space group I222, one protomer in the asymmetric unit, 1.7 Å, SAD; oligomeric state analysed with PISA

Molecule: O=C(O)[C@H]1COP(=O)(O)OP(=O)(O)O1 [cDPG]
- HPLC-MS detection of product [1]: The direct production of cDPG was monitored by HPLC–MS

B1: cyclic 2,3-diphosphoglycerate synthetase from Methanothermus fervidus, N-terminally His-tagged (enzyme, UniProt O93732 1-460, looked up)
chain: MGETKKMICLVDGEHYFPVVKDSIEILDDLEHIDVVAVVFIGGTEKLQIEDPKEYSEKLGKPVFFGPDPKKIPYDVIKKCVKKYNADIVMDLSDEPVVDYTKRFRIASIVLKEGAVYQGADFKFEPLTEYDVLEKPSIKIIGTGKRIGKTAVSAYAARVIHKHKYNPCVVAMGRGGPREPEIVEGNKIEITAEYLLEQADKGVHAASDHWEDALMSRILTVGCRRCGGGMLGDTFITNVKRGAEIANKLDSDFVIMEGSGAAIPPVKTNRQIVTVGANQPMININNFFGPFRIGLADLVIITMCEEPMATTEKIKKVEKFIKEINPSANVIPTVFRPKPVGNVEGKKVLFATTAPKVVVGKLVNYLESKYGCDVVGVTPHLSNRPLLRRDLKKYINKADLMLTELKAAAVDVATRVAIEAGLDVVYCDNIPVVIDESYGNIDDAIIEVVEMAIDDFKNNR
notes: cyclic 2,3-diphosphoglycerate synthetase (cDPGS), Methanothermus fervidus; E. coli codon-optimised gene in pLATE51; 460 protein residues in the structures, which hold the entire polypeptide chain (N-terminal domain of 127 amino acids, C-terminal domain residues 136-460); No removal of the His tag is told; also called cDPGS; Mf-cDPGS
- stoichiometry N [2]: 2

B2: selenomethionine derivative of cyclic 2,3-diphosphoglycerate synthetase from Methanothermus fervidus (enzyme, UniProt O93732 1-460, looked up)
chain: MGETKKMICLVDGEHYFPVVKDSIEILDDLEHIDVVAVVFIGGTEKLQIEDPKEYSEKLGKPVFFGPDPKKIPYDVIKKCVKKYNADIVMDLSDEPVVDYTKRFRIASIVLKEGAVYQGADFKFEPLTEYDVLEKPSIKIIGTGKRIGKTAVSAYAARVIHKHKYNPCVVAMGRGGPREPEIVEGNKIEITAEYLLEQADKGVHAASDHWEDALMSRILTVGCRRCGGGMLGDTFITNVKRGAEIANKLDSDFVIMEGSGAAIPPVKTNRQIVTVGANQPMININNFFGPFRIGLADLVIITMCEEPMATTEKIKKVEKFIKEINPSANVIPTVFRPKPVGNVEGKKVLFATTAPKVVVGKLVNYLESKYGCDVVGVTPHLSNRPLLRRDLKKYINKADLMLTELKAAAVDVATRVAIEAGLDVVYCDNIPVVIDESYGNIDDAIIEVVEMAIDDFKNNR
modifications: selenomethionine in place of methionine
notes: cyclic 2,3-diphosphoglycerate synthetase (cDPGS), Methanothermus fervidus; same construct as m1, made with selenomethionine; 460 protein residues, the entire polypeptide chain seen in the structure; Used for the ligand-free structure (SAD phasing); One protomer in the asymmetric unit; the dimer lies on a crystallographic dyad; also called SeMet cDPGS; apo-cDPGS; source: E. coli, PASM-5052 auto …
- binding result [3]: binds
